Among the data in patent EP1722229B1 are Ki and Km of PC activation by thrombin on the surface of endothelial cells in the presence of rhsEPCR 2 µM values, retold here.

Test [1] addresses protein C (PC) (UniProt P04070). Description: derived from the shift of the Km of PC activation by thrombin on EA.hy926 endothelial cells with 2 µM rhsEPCR.
For test [2] the target is unchanged. In words: cell-based or functional assay.

Sequence of protein C (PC) (P04070 43-461): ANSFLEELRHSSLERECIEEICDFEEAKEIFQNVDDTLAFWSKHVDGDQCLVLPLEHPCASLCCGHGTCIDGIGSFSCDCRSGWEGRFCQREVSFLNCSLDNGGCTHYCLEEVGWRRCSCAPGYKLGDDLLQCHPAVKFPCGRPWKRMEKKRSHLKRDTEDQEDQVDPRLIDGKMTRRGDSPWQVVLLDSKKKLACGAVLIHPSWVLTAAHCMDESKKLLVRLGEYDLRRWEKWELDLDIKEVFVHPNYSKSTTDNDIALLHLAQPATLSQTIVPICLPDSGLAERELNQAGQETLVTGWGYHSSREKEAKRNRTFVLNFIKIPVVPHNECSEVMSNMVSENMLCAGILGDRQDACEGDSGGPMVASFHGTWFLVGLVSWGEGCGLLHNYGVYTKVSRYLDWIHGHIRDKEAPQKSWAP

By Ki is commonly meant the equilibrium dissociation constant of an inhibitor or competing ligand from its target. On to “recombinant human soluble EPCR (rhsEPCR) (receptor)”, for which the Ki in the test with protein C (PC) [1] is 70 nM. For the same substance, the Km of PC activation by thrombin on the surface of endothelial cells in the presence of rhsEPCR 2 µM in the test with protein C (PC) [2] turned out to be 1 µM.
